For this test, the target named is acetylcholine receptor. As to the kind of experiment: SPR, receptor on CM5 chip, peptide 10 µM.

As for KRRLCK [6mer-1-503], the Binding affinity (RU) amounted to 151 RU. As for KRQRCK [6mer-1-472], the figure is 142 RU.

Take RRRYSR [6mer-1-120]: the Binding affinity (RU) amounted to 124 RU. Take RKRFLR [6mer-1-133]: the Binding affinity (RU) stood at 154 RU. As for RRSITR [6mer-1-504], the figure is 122 RU; as for KKWVCR [6mer-1-112], 148 RU.

In the case of KRQVSR [6mer-1-135], the Binding affinity (RU) came to 123 RU. The same measure for RRSLSR [6mer-1-115]: 133 RU. KRQVRK [6mer-1-486] displayed a Binding affinity (RU) of 151 RU.

Turning to KRLQTR [6mer-1-119], the Binding affinity (RU) came out at 133 RU. The same measure for KRWRCK [6mer-1-481]: 133 RU; for KRVQQK [6mer-1-124]: 137 RU; for RKLRLR [6mer-1-491]: 137 RU. The same measure for KKWRCK [6mer-1-471]: 123 RU. The same measure for RKVRYK [6mer-1-478]: 139 RU; for RRLYRR [6mer-1-468]: 153 RU. The molecule KKVLSK [6mer-1-473] yielded a Binding affinity (RU) of 154 RU. As for KKLYLR [6mer-1-484], the figure is 154 RU; as for KKWYSK [6mer-1-488], 135 RU; as for RKQVLR [6mer-1-130], 142 RU. As for RKWICK [6mer-1-512], the figure is 154 RU; as for RKLQLR [6mer-1-118], 127 RU; as for RKVRCK [6mer-1-116], 139 RU.

Consider RRSQSK [6mer-1-507], for which the Binding affinity (RU) came out at 139 RU.

KKGRSK [6mer-1-514] gave a Binding affinity (RU) of 128 RU. The same measure for KKWVYR [6mer-1-470]: 148 RU.

KRVLYK [6mer-1-501] came in with a Binding affinity (RU) of 154 RU. As for RRQITK [6mer-1-114], the figure is 153 RU. As for RRSLTR [6mer-1-479], the figure is 135 RU; as for RRRFTR [6mer-1-505], 148 RU; as for KKSIYR [6mer-1-134], 128 RU.

KKLIYR [6mer-1-469] came in with a Binding affinity (RU) of 139 RU. As for KRGIQR [6mer-1-131], the figure is 142 RU; as for KKLFSR [6mer-1-494], 128 RU; as for RRQVYR [6mer-1-132], 153 RU.

The molecule KRRLCR [6mer-1-125] gave a Binding affinity (RU) of 135 RU. The same measure for KRLFTR [6mer-1-117]: 142 RU; for RKLQTK [6mer-1-475]: 148 RU. With RKQVRK [6mer-1-482], the Binding affinity (RU) was found to be 133 RU. The same measure for RRVYQR [6mer-1-496]: 148 RU.

Turning to RKWLRK [6mer-1-509], the Binding affinity (RU) came to 128 RU. As for KRQVTK [6mer-1-483], the figure is 151 RU; as for KKLIRK [6mer-1-122], 139 RU. As for KRVIYR [6mer-1-127], the figure is 147 RU; as for RRRQSK [6mer-1-129], 121 RU. The same measure for RKLQSK [6mer-1-500]: 151 RU. The molecule KRRYTK [6mer-1-121] gave a Binding affinity (RU) of 148 RU. As for KRLFSK [6mer-1-474], the figure is 121 RU; as for RKGRRK [6mer-1-487], 121 RU.

As to RKLFSR [6mer-1-502], the Binding affinity (RU) worked out at 146 RU.

With RRWYRR [6mer-1-485], the Binding affinity (RU) was 126 RU. The same measure for KRGYLR [6mer-1-493]: 131 RU; for RKQFYR [6mer-1-128]: 126 RU; for RKRQQK [6mer-1-498]: 139 RU.

Consider KRRQLR [6mer-1-497], for which the Binding affinity (RU) came out at 133 RU. As for KRRQSR [6mer-1-510], the figure is 122 RU; as for RKLFYR [6mer-1-499], 149 RU. As for RRGVQK [6mer-1-123], the figure is 148 RU. Molecule KKWIQR [6mer-1-126] registered a Binding affinity (RU) of 148 RU.

For RKGFQR [6mer-1-495], the Binding affinity (RU) was found to be 126 RU.

KRQQTK [6mer-1-477]: the Binding affinity (RU) stood at 145 RU.

On to KRGVQK [6mer-1-113], for which the Binding affinity (RU) was found to be 148 RU. The same measure for RRRLSK [6mer-1-506]: 151 RU. The same measure for RKVYRR [6mer-1-511]: 136 RU; for KKQFYK [6mer-1-480]: 121 RU. With KRRRQK [6mer-1-476], the Binding affinity (RU) amounted to 154 RU. The molecule RRQFSK [6mer-1-508] gave a Binding affinity (RU) of 135 RU.

The molecule RRWRQK [6mer-1-492] had a Binding affinity (RU) of 139 RU. The same measure for KKVITK [6mer-1-489]: 148 RU; for RKQIRR [6mer-1-513]: 154 RU; for KKLFRR [6mer-1-490]: 133 RU.

These data come from patent publication US20250011363A1, “OPTIMIZED SHORTENED PEPTIDE THAT BINDS TO ACETYLCHOLINE RECEPTOR, AND USE THEREOF” (SKINMED CO., LTD., priority 2021, published 2025).
